Reference: patent publication US10513547B2, “Peptides and combination of peptides and scaffolds thereof for use in immunotherapy against colorectal carcinoma (CRC) and other cancers” (Immatics Biotechnologies GmbH, priority 2015, dated 2019)

Experiments:
[1] = system: CD8+ T-cells; test: In vitro T-cell priming assay with aAPCs loaded with peptide/MHC and anti-CD28, pMHC multimer readout; assay type: cell-based, human; conditions: for Wells positive [%]: HLA-A*02 restricted peptides, positive wells among evaluable; for donors (in vitro immunogenicity, positive donors) / wells (in vitro immunogenicity, positive wells): HLA class I peptides, healthy donor CD8+ T-cells, multimer staining
From the text: In order to obtain information regarding the immunogenicity of the TUMAPs of the present invention, the inventors performed investigations using an in vitro T-cell priming assay based on repeated stimulations of CD8+ T-cells with artificial antigen presenting cells (aAPCs) loaded with peptide/MHC complexes and anti-CD28 antibody.
In order to perform in vitro stimulations by artificial antigen presenting cells loaded with peptide-MHC complex (pMHC) and anti-CD28 antibody, the inventors first isolated CD8+ T-cells from fresh HLA-A*02 leukapheresis products via positive selection using CD8 microbeads (Miltenyi Biotec, Bergisch-Gladbach, Germany) of healthy donors obtained from the University clinics Mannheim, Germany, after informed consent.
PBMCs and isolated CD8+ lymphocytes were incubated in T-cell medium (TCM) until use consisting of RPMI-Glutamax (Invitrogen, Karlsruhe, Germany) supplemented with 10% heat inactivated human AB serum (PAN-Biotech, Aidenbach, Germany), 100 U/ml Penicillin/100 μg/ml Streptomycin (Cambrex, Cologne, Germany), 1 mM sodium pyruvate (CC Pro, Oberdorla, Germany), 20 μg/ml Gentamycin (Cambrex). 2.5 ng/ml IL-7 (PromoCell, Heidelberg, Germany) and 10 U/ml IL-2 (Novartis Pharma, Nürnberg, Germany) were also added to the TCM at this step.
Generation of pMHC/anti-CD28 coated beads, T-cell stimulations and readout was performed in a highly defined in vitro system using four different pMHC molecules per stimulation condition and 8 different pMHC molecules per readout condition.
The purified co-stimulatory mouse IgG2a anti human CD28 Ab 9.3 (Jung et al., 1987) was chemically biotinylated using Sulfo-N-hydroxysuccinimidobiotin as recommended by the manufacturer (Perbio, Bonn, Germany). Beads used were 5.6 μm diameter streptavidin coated polystyrene particles (Bangs Laboratories, Illinois, USA).
800.000 beads/200 μl were coated in 96-well plates in the presence of 4×12.5 ng different biotin-pMHC, washed and 600 ng biotin anti-CD28 were added subsequently in a volume of 200 μl. Stimulations were initiated in 96-well plates by co-incubating 1×10^6 CD8+ T-cells with 2×10^5 washed coated beads in 200 μl TCM supplemented with 5 ng/ml IL-12 (PromoCell) for 3 days at 37° C. Half of the medium was then exchanged by fresh TCM supplemented with 80 U/ml IL-2 and incubating was continued for 4 days at 37° C. This stimulation cycle was performed for a total of three times. For the pMHC multimer readout using 8 different pMHC molecules per condition, a two-dimensional combinatorial coding approach was used as previously described (Andersen et al., 2012) with minor modifications encompassing coupling to 5 different fluorochromes. Finally, multimeric analyses were performed by staining the cells with Live/dead near IR dye (Invitrogen, Karlsruhe, Germany), CD8-FITC antibody clone SK1 (BD, Heidelberg, Germany) and fluorescent pMHC multimers. For analysis, a BD LSRII SORP cytometer equipped with appropriate lasers and filters was used. Peptide specific cells were calculated as percentage of total CD8+ cells. Evaluation of multimeric analysis was done using the FlowJo software (Tree Star, Oreg., USA). In vitro priming of specific multimer+ CD8+ lymphocytes was detected by comparing to negative control stimulations.

[2] = molecular target: HLA-A*02:01 (Homo sapiens, UniProt P04439, D140Y/D185E/D98H/E176V/E277Q/G131W/G231S/I119V/I121R/I166T/I218V/L300P/L318F/N151K/N90K/P208A/P217A/Q86G/Q94H/R138H/R169H/T345S); test: MHC binding assay (UV-ligand exchange, beta2m ELISA, peptide exchange yield); conditions: binding to HLA-A*02:01
From the text: Candidate peptides for T cell based therapies according to the present invention were further tested for their MHC binding capacity (affinity). The individual peptide-MHC complexes were produced by UV-ligand exchange, where a UV-sensitive peptide is cleaved upon UV-irradiation, and exchanged with the peptide of interest as analyzed. Only peptide candidates that can effectively bind and stabilize the peptide-receptive MHC molecules prevent dissociation of the MHC complexes. To determine the yield of the exchange reaction, an ELISA was performed based on the detection of the light chain ([…]) of stabilized MHC complexes. The assay was performed as generally described in Rodenko et al. (Rodenko et al., 2006).
96 well MAXISorp plates (NUNC) were coated over night with 2 ug/ml streptavidin in PBS at room temperature, washed 4× and blocked for 1 h at 37° C. in 2% BSA containing blocking buffer. Refolded HLA-A*02:01/MLA-001 monomers served as standards, covering the range of 15-500 ng/ml. Peptide-MHC monomers of the UV-exchange reaction were diluted 100 fold in blocking buffer. Samples were incubated for 1 h at 37° C., washed four times, incubated with 2 ug/ml HRP conjugated anti-β2m for 1 h at 37° C., washed again and detected with TMB solution that is stopped with […]. Absorption was measured at 450 nm. Candidate peptides that show a high exchange yield (preferably higher than 50%, most preferred higher than 75%) are generally preferred for a generation and production of antibodies or fragments thereof, and/or T cell receptors or fragments thereof, as they show sufficient avidity to the MHC molecules and prevent dissociation of the MHC complexes.

| Substance | Peptide exchange (MHC class I binding score, peptide exchange yield) [2] | other results |
| --- | --- | --- |
| 59 (LLTDNVVKL; listed as Homo sapiens) [compound 59] | “+++” (≥50 = +++) | Wells positive [%] [1]: “+” (<20% = +) |
| 37 (GLFAGLGGAGA; listed as Homo sapiens) [compound 37] | “+++” (≥50 = +++) | Wells positive [%] [1]: “+” (<20% = +) |
| 11 (YLFEKTFNM; listed as Homo sapiens) [compound 11] | “+++” (≥50 = +++) | Wells positive [%] [1]: “+” (<20% = +) |
| 124 (RVLPPSALQSV; listed as Homo sapiens) [compound 124] | “+++” (≥50 = +++) | Wells positive [%] [1]: “+” (<20% = +) |
| 38 (SLAPTPVSA; listed as Homo sapiens) [compound 38] | “++” (≥20% = ++) | Wells positive [%] [1]: “+” (<20% = +) |
| 18 (FLSSLKGGLL; listed as Homo sapiens) [compound 18] | “+++” (≥50 = +++) | Wells positive [%] [1]: “+” (<20% = +) |
| 19 (RLYTKLLNEA; listed as Homo sapiens) [compound 19] | “+++” (≥50 = +++) | Wells positive [%] [1]: “+++” (50%-69% = +++) |
| 17 (ALAAARVEL; listed as Homo sapiens) [compound 17] | “+++” (≥50 = +++) | Wells positive [%] [1]: “++” (20%-49% = ++) |
| 42 (SILDDSFKL; listed as Homo sapiens) [compound 42] | “++++” (≥75% = ++++) | Wells positive [%] [1]: “+” (<20% = +) |
| 3 (RLIPDTLYSV; listed as Homo sapiens) [compound 3] | – | Wells positive [%] [1]: “+++” (50%-69% = +++) |
| 219 (FLDEKGRCV; listed as Homo sapiens) [compound 219] | – | donors (in vitro immunogenicity, positive donors) [1]: +++ (50% − 69% = +++); wells (in vitro immunogenicity, positive wells) [1]: ++ (20% − 49% = ++) |
| 165 (RLLDFPEAMVL; listed as Homo sapiens) [compound 165] | “++++” (≥75% = ++++) | – |
| 4 (RLAELTVDEFL; listed as Homo sapiens) [compound 4] | “+++” (≥50 = +++) | – |
| 94 (KSMDIVLTV; listed as Homo sapiens) [compound 94] | “+++” (≥50 = +++) | – |
| 105 (YALDLSTFL; listed as Homo sapiens) [compound 105] | “+++” (≥50 = +++) | – |
| 30 (GLSSAYGGL; listed as Homo sapiens) [compound 30] | “+” (≥10% = +) | – |
| 25 (SLADRLIGV; listed as Homo sapiens) [compound 25] | “++++” (≥75% = ++++) | – |
| 88 (KLDIKVETV; listed as Homo sapiens) [compound 88] | “++++” (≥75% = ++++) | – |
| 220 (KMDPVAYRV; listed as Homo sapiens) [compound 220] | – | donors (in vitro immunogenicity, positive donors) [1]: ++++ (>=70% = ++++); wells (in vitro immunogenicity, positive wells) [1]: +++ (50% − 69% = +++) |
| 173 (KLGDLMVLL; listed as Homo sapiens) [compound 173] | “+++” (≥50 = +++) | – |
| 121 (SLAPNIISQL; listed as Homo sapiens) [compound 121] | “+++” (≥50 = +++) | – |
| 71 (RLWTEIPTAI; listed as Homo sapiens) [compound 71] | “+++” (≥50 = +++) | – |

| Substance | Peptide exchange (MHC class I binding score, peptide exchange yield) [2] | other results |
| --- | --- | --- |
| 129 (VLIDVLKEL; listed as Homo sapiens) [compound 129] | “+++” (≥50 = +++) | – |
| 81 (ALLSQQTHL; listed as Homo sapiens) [compound 81] | “+++” (≥50 = +++) | – |
| 176 (RTLDKVLEV; listed as Homo sapiens) [compound 176] | “++” (≥20% = ++) | – |
| 77 (SLLKRDFGA; listed as Homo sapiens) [compound 77] | “++” (≥20% = ++) | – |
| 54 (ALLNGEYLLAA; listed as Homo sapiens) [compound 54] | “+++” (≥50 = +++) | – |
| 74 (YLMGFLHAV; listed as Homo sapiens) [compound 74] | “+++” (≥50 = +++) | – |
| 112 (KLGQVLIYL; listed as Homo sapiens) [compound 112] | “++” (≥20% = ++) | – |
| 72 (YLLDYPNNLL; listed as Homo sapiens) [compound 72] | “+++” (≥50 = +++) | – |
| 27 (LLADEDSSYL; listed as Homo sapiens) [compound 27] | “++” (≥20% = ++) | – |
| 186 (KMSEKILLL; listed as Homo sapiens) [compound 186] | “+++” (≥50 = +++) | – |
| 151 (SAQGSDVSLTACKV; listed as Homo sapiens) [compound 151] | “+++” (≥50 = +++) | – |
| 82 (QLYEEPDTKL; listed as Homo sapiens) [compound 82] | “++” (≥20% = ++) | – |
| 34 (ILLEKSVSV; listed as Homo sapiens) [compound 34] | “+++” (≥50 = +++) | – |
| 104 (ILLTIKDDTIYL; listed as Homo sapiens) [compound 104] | “+++” (≥50 = +++) | – |
| 107 (ALLGGGPYML; listed as Homo sapiens) [compound 107] | “+++” (≥50 = +++) | – |
| 33 (ALWEKNTHL; listed as Homo sapiens) [compound 33] | “+++” (≥50 = +++) | – |
| 100 (SLDDFLATA; listed as Homo sapiens) [compound 100] | “+++” (≥50 = +++) | – |
| 20 (YLKDGDVML; listed as Homo sapiens) [compound 20] | “+++” (≥50 = +++) | – |
| 138 (KQFEGTVEI; listed as Homo sapiens) [compound 138] | “+++” (≥50 = +++) | – |
| 164 (KMLDEILLQL; listed as Homo sapiens) [compound 164] | “++++” (≥75% = ++++) | – |
| 44 (SLESKLTSV; listed as Homo sapiens) [compound 44] | “+++” (≥50 = +++) | – |
